Test [1] deals with T1, mouse common cytokine receptor γ-chain (IL-2Rγ) (mouse, UniProt P34902 23-263, limits assumed).
T1 construct: Recombinant mouse IL-2Rγ protein; also called mo IL-2R; mouse IL-2R gamma
T1 sequence (looked up): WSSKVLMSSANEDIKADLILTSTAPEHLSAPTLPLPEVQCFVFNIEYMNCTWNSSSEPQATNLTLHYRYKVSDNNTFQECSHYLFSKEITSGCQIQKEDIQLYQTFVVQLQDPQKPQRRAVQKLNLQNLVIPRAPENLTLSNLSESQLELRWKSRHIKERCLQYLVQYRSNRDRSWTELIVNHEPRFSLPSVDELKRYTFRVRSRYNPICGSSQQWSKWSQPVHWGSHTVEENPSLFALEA
Description: P.E. off-rate SPR. The method, then:
(§1) SPR was performed to determine dissociation rates using Biacore 3000 instrument (GE Healthcare). Briefly, human and mouse IL-2R proteins were immobilized on carboxylmethyl dextran sensor chip (CM5) at approximately 2500 RUs using amine coupling in acetate buffer (GE Healthcare). The VHH-containing P.E. were loaded with a flow rate of 30 uL/min and the off-rates were measured over a 120s period.

Test [2] deals with T2, human common cytokine receptor γ-chain (IL-2Rγ) (human, UniProt P31785 23-262, limits assumed).
T2 construct: Recombinant human IL-2Rγ protein, coated (ELISA) or amine-coupled to a CM5 chip (SPR); also called hu IL-2R; CD132
T2 sequence: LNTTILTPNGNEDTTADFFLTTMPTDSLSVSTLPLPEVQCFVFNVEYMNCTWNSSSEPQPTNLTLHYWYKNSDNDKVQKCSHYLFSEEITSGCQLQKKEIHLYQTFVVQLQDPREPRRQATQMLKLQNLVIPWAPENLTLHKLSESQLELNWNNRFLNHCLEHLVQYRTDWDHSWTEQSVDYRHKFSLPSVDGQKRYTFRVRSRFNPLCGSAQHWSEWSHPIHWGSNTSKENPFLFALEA
Description: P.E. off-rate SPR. The method, then:
as §1

In test [3] the target is T1, mouse common cytokine receptor γ-chain …. Description: P.E. binding ELISA. The method, then:
(§2) In a binding ELISA, human or mouse IL-2Rα, IL-2Rβ and IL-2Rγ proteins were coated directly on maxisorp microtiter plates overnight at 4° C. Free binding sites were blocked using 4% Marvel in PBS for 1 hour. Next, 1:5 dilution of P.E. in 1% Marvel/PBS were added to wells and incubated for 1 hour. […] Binding specificity was determined based on O.D. at 450 nm values compared to negative controls.
On the technique in general: In an ELISA, binding on a coated surface is turned into a signal by an enzyme label.

Test [4] addresses T2, human common cytokine receptor γ-chain …. Description: P.E. binding ELISA. The method, then:
as §2

Changes are numbered by the printed parent chain.

B1: FJ1427_P035MP07D01 (VHH)
VHH: QVQLVESGGGLVQAGGSLRLSCAASGRTLSRYAMGWFRQAPGKEREFVAANSWGGDTYYTDSVEGRFTFSRDNAKNAVYLQMNSLQPGDTAVYYCAAAPTSFATTAYSSSNSYSYWGQGTQVTVSS
notes: tested as periplasmic extract; also called Clone nr; 580
What is called koff is the rate constant with which the complex falls apart. As to B1, the koff turned out to be 0.113 s⁻¹ in test [1] and 0.00294 s⁻¹ in test [2]. Further, the “PE binding ELISA OD” value in test [3] came to 0.051 OD450 nm; in test [4], 1.19 OD450 nm.

B2: FJ1427_P035MP07E02 (VHH)
VHH: B1 VHH with T28A, Y32L, A49V, N51S, G55D, Y58F, T60A, E64K, A77T, S114A
notes: tested as periplasmic extract; also called Clone nr
Regarding B2, the koff was 0.0132 s⁻¹ in test [1] and 0.00206 s⁻¹ in test [2]. The “PE binding ELISA OD” value in test [3] came out at 0.061 OD450 nm; in test [4], 0.62 OD450 nm.

B3: FJ1427_P035MP07D02 (VHH)
VHH: QVQLQESGGGLVQAGGSLRLSCAASGRALSRLAMGWFRQAPGKEREFVVASSWGDDTFYADSVKGRFTFSRDNAKNTVYLQMNSLQPGDTAVYYCAAAPTSFATTAYSSSNSYAYWGQGTQVTVSS
notes: tested as periplasmic extract; also called Clone nr; 588
Take B3: the koff in test [1] amounted to 0.0127 s⁻¹; in test [2], 0.00152 s⁻¹. The results for the “PE binding ELISA OD” value in test [3] and in test [4] were 0.057 OD450 nm and 0.599 OD450 nm, respectively.

B4: FJ1427_P035MP07G05 (VHH)
VHH: B1 VHH with N51D, T60A, K75N, G88E, S114A
notes: as for B2
Consider B4, for which the koff in test [1] was found to be 0.191 s⁻¹; in test [2], 0.00257 s⁻¹. Moreover, the entries for the “PE binding ELISA OD” value in test [3] and in test [4] were 0.046 OD450 nm and 0.45 OD450 nm, respectively.

B5: FJ1427_P035MP07E04 (VHH)
VHH: B1 VHH with G16D, A23E, A49T, T60A, E64Q, A77T, G88E, S114A
notes: tested as periplasmic extract; also called Clone nr; 605
In the case of B5, the koff in test [1] stood at 0.103 s⁻¹; in test [2] it was 0.00259 s⁻¹. Also, the “PE binding ELISA OD” value in test [3] was found to be 0.046 OD450 nm; in test [4] it was 0.729 OD450 nm.

B6: FJ1427_P035MP07F04 (VHH)
VHH: B1 VHH with Q1E, A49T, T60A, E64Q, A77T, G88E, S114A
notes: tested as periplasmic extract; also called Clone nr; 606
On to B6, for which the koff in test [1] came to 0.115 s⁻¹; in test [2], 0.00296 s⁻¹. Besides, the “PE binding ELISA OD” value in test [3] is 0.047 OD450 nm; in test [4], 0.4 OD450 nm.

B7: FJ1427_P035MP07E01 (VHH)
VHH: QVQLQESGGGLVQAGGSLRLSCAASGRTLSRYAMGWFRQAPGKEREFVACDSWGGDTFYADSVEGRFTFSRDNAKNATYLQMNSLQPEDTAVYYCAGAPTSFATTAYSSSNSYTVWGQGTQVTVSL
notes: as for B2
On to B7, for which the koff in test [1] came to 0.0132 s⁻¹; in test [2] it was 0.00156 s⁻¹. Further, the figures for the “PE binding ELISA OD” value in test [3] and in test [4] were 0.139 OD450 nm and 0.83 OD450 nm, respectively.

B8: FJ1427_P035MP07D09 (VHH)
VHH: B1 VHH with Q1E, A49T, T60A, E64Q, A77T, G88E, S114A
notes: as for B2
Turning to B8, the koff in test [1] was found to be 0.126 s⁻¹; in test [2], 0.00447 s⁻¹. The “PE binding ELISA OD” value in test [3] came out at 0.045 OD450 nm; in test [4], 0.865 OD450 nm.

B9: FJ1427_P035MP07D10 (VHH)
VHH: B1 VHH with N51D, T60D, N73I, G88E, S114A
notes: as for B2
In the case of B9, the koff in test [1] is 0.125 s⁻¹; in test [2], 0.003 s⁻¹. Further, the “PE binding ELISA OD” value turned out to be 0.048 OD450 nm in test [3] and 0.734 OD450 nm in test [4].

B10: FJ1427_P035MP07F05 (VHH)
VHH: B1 VHH with Q1E, K43R, A49T, T60A, E64Q, A77T, G88E, S114A
notes: as for B2
With B10, the results for the koff in test [1] and in test [2] were 0.116 s⁻¹ and 0.00323 s⁻¹, respectively. Also, the “PE binding ELISA OD” value in test [3] was 0.045 OD450 nm; in test [4], 0.405 OD450 nm.

B11: FJ1427_P035MP07H02 (VHH)
VHH: B3 VHH with Q5V
notes: tested as periplasmic extract; also called Clone nr; 592
For the molecule B11, the koff in test [1] came to 0.0123 s⁻¹; in test [2] it was 0.00188 s⁻¹. The “PE binding ELISA OD” value was found to be 0.066 OD450 nm in test [3] and 0.801 OD450 nm in test [4].

B12: FJ1427_P035MP07E08 (VHH)
VHH: B1 VHH with N51D, T60D, N73I, G88E, S114A
notes: as for B2
For the molecule B12, the koff in test [1] worked out at 0.13 s⁻¹; in test [2], 0.00229 s⁻¹. For the same molecule, the “PE binding ELISA OD” value in test [3] worked out at 0.049 OD450 nm; in test [4], 0.642 OD450 nm.

B13: FJ1427_P035MP07G04 (VHH)
VHH: B1 VHH with Q1E, A49T, T60A, E64Q, A77T, G88E, S114A
notes: as for B2
For B13, the koff in test [1] was determined as 0.112 s⁻¹; in test [2] it was 0.00281 s⁻¹. Besides, the “PE binding ELISA OD” value in test [3] stood at 0.047 OD450 nm; in test [4] it was 1.02 OD450 nm.

B14: FJ1427_P035MP07G08 (VHH)
VHH: B1 VHH with K43R, A49T, T60A, E64Q, A77T, N83S, G88E, S114A
notes: as for B2
For B14, the results for the koff in test [1] and in test [2] were 0.105 s⁻¹ and 0.003 s⁻¹, respectively. Also, the “PE binding ELISA OD” value in test [3] was found to be 0.047 OD450 nm; in test [4], 0.504 OD450 nm.

B15: FJ1427_P035MP07D06 (VHH)
VHH: B1 VHH with Q1E, A49T, T60A, E64Q, A77T, G88E, S114A
notes: tested as periplasmic extract; also called Clone nr; 620
Take B15: the koff in test [1] turned out to be 0.126 s⁻¹; in test [2], 0.00288 s⁻¹. The results for the “PE binding ELISA OD” value in test [3] and in test [4] were 0.045 OD450 nm and 0.919 OD450 nm, respectively.

B16: FJ1427_P035MP07G10 (VHH)
VHH: B7 VHH with Q5V, F47Y, C50I, A77E, T78V, T114R, V115Y, L126S
notes: tested as periplasmic extract; also called Clone nr; 655
With B16, the koff in test [1] was determined as 0.00682 s⁻¹; in test [2], 0.00122 s⁻¹. For the same molecule, the results for the “PE binding ELISA OD” value in test [3] and in test [4] were 0.74 OD450 nm and 0.682 OD450 nm, respectively.

B17: FJ1427_P035MP07D05 (VHH)
VHH: B7 VHH with Q5V, Y32N, C50A, T78V, T114R, V115Y, L126S
notes: as for B2
As for B17, the koff stood at 0.0609 s⁻¹ in test [1] and 0.00153 s⁻¹ in test [2]. In addition, the “PE binding ELISA OD” value in test [3] amounted to 0.054 OD450 nm; in test [4], 0.733 OD450 nm.

B18: FJ1427_P035MP07E09 (VHH)
VHH: B1 VHH with V5Q, A49T, T60A, E64Q, A77T, G88E, S114A
notes: as for B2
As to B18, the koff in test [1] was 0.108 s⁻¹; in test [2], 0.0033 s⁻¹. Moreover, the “PE binding ELISA OD” value in test [3] is 0.045 OD450 nm; in test [4], 0.428 OD450 nm.

B19: FJ1427_P035MP07F10 (VHH)
VHH: B7 VHH
notes: tested as periplasmic extract; also called Clone nr; 654
On to B19, for which the koff in test [1] worked out at 0.0121 s⁻¹; in test [2] it was 0.00199 s⁻¹. Further, the “PE binding ELISA OD” value in test [3] was 0.089 OD450 nm; in test [4], 0.67 OD450 nm.

B20: FJ1427_P035MP07F07 (VHH)
VHH: B1 VHH with Q1E, A49T, T60A, E64Q, A77T, G88E, S114A
notes: tested as periplasmic extract; also called Clone nr; 630
With B20, the koff in test [1] was determined as 0.133 s⁻¹; in test [2], 0.003 s⁻¹. In addition, the “PE binding ELISA OD” value in test [3] is 0.045 OD450 nm; in test [4], 0.372 OD450 nm.

B21: FJ1427_P035MP07D08 (VHH)
VHH: B1 VHH with V2L, A49T, T60A, E64Q, A77T, G88E, S114A
notes: as for B2
Turning to B21, the koff in test [1] turned out to be 0.0991 s⁻¹; in test [2], 0.00263 s⁻¹. Moreover, the “PE binding ELISA OD” value in test [3] came out at 0.05 OD450 nm; in test [4], 1.03 OD450 nm.

B22: FJ1427_P035MP07H01 (VHH)
VHH: QVQLVESGGGLVQAGGSLRLFCATSGRTLSRYAMGWFRQAPGREREFVACDSWGGDTFYADSVKGRFTFSRDSAKNTVYLQMNSLQPEDTAVYYCAAAPTSFATTAYSSSNSYAYWGQGTQVTVSS
notes: as for B2
B22: the koff in test [1] stood at 0.0274 s⁻¹; in test [2], 0.00125 s⁻¹. The “PE binding ELISA OD” value is 0.133 OD450 nm in test [3] and 0.818 OD450 nm in test [4].

B23: FJ1427_P035MP07F06 (VHH)
VHH: B3 VHH with Q5V
notes: as for B2
As for B23, the koff in test [1] is 0.0117 s⁻¹; in test [2], 0.00162 s⁻¹. Further, the entries for the “PE binding ELISA OD” value in test [3] and in test [4] were 0.082 OD450 nm and 1.34 OD450 nm, respectively.

B24: FJ1427_P035MP07E05 (VHH)
VHH: B1 VHH with Q1E, A49T, T60A, E64Q, A77T, G88E, S114A
notes: as for B2
For the molecule B24, the koff in test [1] amounted to 0.12 s⁻¹; in test [2], 0.00372 s⁻¹. Moreover, the entries for the “PE binding ELISA OD” value in test [3] and in test [4] were 0.045 OD450 nm and 0.434 OD450 nm, respectively.

Source of the values: patent publication US20240409645A1 (DUALYX, published 2024).
